Experimental data from doi:10.1101/402990 (bioRxiv, 2018).

Target: T1, 6His-Tea3 (S. pombe, UniProt O14248 1-1125)
T1 sequence (looked up): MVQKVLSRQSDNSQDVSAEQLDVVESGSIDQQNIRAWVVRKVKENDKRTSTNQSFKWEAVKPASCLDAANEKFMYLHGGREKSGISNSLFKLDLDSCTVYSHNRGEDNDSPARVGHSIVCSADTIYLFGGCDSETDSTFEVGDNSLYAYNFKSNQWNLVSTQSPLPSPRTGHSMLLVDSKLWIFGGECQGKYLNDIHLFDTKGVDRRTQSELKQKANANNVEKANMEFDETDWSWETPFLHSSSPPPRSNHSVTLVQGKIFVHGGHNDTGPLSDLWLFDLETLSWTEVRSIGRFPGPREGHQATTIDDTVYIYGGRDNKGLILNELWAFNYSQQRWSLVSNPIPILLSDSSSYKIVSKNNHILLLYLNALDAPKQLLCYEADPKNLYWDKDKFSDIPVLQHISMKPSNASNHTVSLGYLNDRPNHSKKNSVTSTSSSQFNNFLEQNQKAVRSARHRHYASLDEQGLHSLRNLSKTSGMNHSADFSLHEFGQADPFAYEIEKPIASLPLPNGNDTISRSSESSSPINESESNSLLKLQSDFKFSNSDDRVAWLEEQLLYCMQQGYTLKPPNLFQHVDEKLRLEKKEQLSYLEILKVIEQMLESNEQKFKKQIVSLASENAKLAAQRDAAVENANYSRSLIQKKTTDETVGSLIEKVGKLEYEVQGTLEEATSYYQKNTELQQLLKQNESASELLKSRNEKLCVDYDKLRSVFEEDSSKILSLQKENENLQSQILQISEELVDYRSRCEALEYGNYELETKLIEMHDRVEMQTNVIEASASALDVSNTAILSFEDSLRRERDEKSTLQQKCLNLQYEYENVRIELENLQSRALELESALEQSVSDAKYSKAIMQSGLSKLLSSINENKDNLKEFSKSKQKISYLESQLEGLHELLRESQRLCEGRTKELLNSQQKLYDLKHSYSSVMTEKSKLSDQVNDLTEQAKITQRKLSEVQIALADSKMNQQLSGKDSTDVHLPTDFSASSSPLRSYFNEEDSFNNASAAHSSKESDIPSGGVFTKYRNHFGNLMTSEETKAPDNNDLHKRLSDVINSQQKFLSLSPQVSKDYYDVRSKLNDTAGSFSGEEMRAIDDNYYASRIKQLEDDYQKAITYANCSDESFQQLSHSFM
Test: pull-down

B1: GST-Shk1 (enzyme, S. pombe, UniProt P50527 1-658, looked up)
chain: MERGTLQPRKKAPNGYGITPIVAHKTGEPVRYEVEDDLRKLKPSRTAPKPPAINTNLAEDTFSGFPLSQSRTTVSRVSLGSRQHSSSSIRKLQTNVSDVRSYDERNQKKSAFENFVSSMSSFLTGGGSSPTSSYGSGSASPRKSTVISSPFDPKHVTHVGFNYDTGEFTGMPTEWQALLKVSGITKSEQVQHPQAVLDAMAFYSQSKKYLEEGAKPPFPRESTEKPLLSVSALSSSSHLQPTSATSSSSRLYPSRPAPTPPASSSSSPLLSSQTVKTTTSNASRQPSPLVSSKSTDNIIRSHSPVLLTPQTLSTSETKHIRPNNSTPYQRRAETSTKPKAVATPQKVEAPSAPRLQKRAPRQQSNDSAVLAKLQSICNPKNPTLLYRNFVKIGQGASGDVYSARQVGTNLSVAIKKMNINQQPKKEFIVNEILVMKSHHHKNIVNFIDTFFYKSELWMVMEYMRGGSLTEVVTNNTLSEGQIAAICKETLEGLQHLHENGIVHRDIKSDNILLSLQGDIKLTDFGFCAQIDSNMTKRTTMVGTPYWMAPEVVTRKEYGFKVDVWSLGIMAIEMVEGEPPYLNENPLRALYLIATIGTPKISRPELLSSVFHDFLSKSLTVNPKQRPSSGELLRHPFLKQAVPVSSLIPLIKSIHHSGK
B1: binds.
